According to publication PMC7611124:

Experiments:
NF-kB p50 [1] = target: T1, NF-kB p50 (UniProt P19838 1-433); assay: competition
NF-kB p50 [2] = target: T1, NF-kB p50; assay: EMSA

T1 sequence (P19838 1-433): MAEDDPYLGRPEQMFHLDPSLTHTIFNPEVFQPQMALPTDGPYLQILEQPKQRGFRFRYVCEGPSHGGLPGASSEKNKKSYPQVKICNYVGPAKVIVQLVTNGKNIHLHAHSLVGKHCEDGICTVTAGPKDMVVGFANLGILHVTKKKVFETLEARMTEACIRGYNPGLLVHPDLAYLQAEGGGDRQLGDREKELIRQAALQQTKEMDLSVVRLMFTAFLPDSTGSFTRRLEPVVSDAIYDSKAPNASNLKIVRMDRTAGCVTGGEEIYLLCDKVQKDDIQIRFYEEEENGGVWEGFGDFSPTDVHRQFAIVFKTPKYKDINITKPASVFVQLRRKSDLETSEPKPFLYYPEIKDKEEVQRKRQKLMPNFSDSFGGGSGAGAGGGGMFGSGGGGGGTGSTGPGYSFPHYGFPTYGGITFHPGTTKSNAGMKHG

B1: C-oligo NF-kB (consensus cold competitor) (dsDNA)
DNA 1: CCGCTGGGACTTTCCAGGA
DNA 2: TCCTGGAAAGTCCCAGCGG
binding result (NF-kB p50 [1]): binds

B2: Probe C (rs28416813 C allele, IFNL3 5'UTR) (dsDNA)
DNA 1: CCCCTGCCCTCAGTGGGCAGCCTCTGCATTCCCTCAGCTCCCTTTCTCTCTGTGA
DNA 2: TCACAGAGAGAAAGGGAGCTGAGGGAATGCAGAGGCTGCCCACTGAGGGCAGGGG
modifications: BrdU (written T) at positions 5 and 34 of strand 1
binding result (NF-kB p50 [2]): binds
